Literature values, collected in PMC8525647.

Biological target: RAG2 (Homo sapiens) (UniProt P55895)
UniProt P55895, sequence (P55895 whole entry): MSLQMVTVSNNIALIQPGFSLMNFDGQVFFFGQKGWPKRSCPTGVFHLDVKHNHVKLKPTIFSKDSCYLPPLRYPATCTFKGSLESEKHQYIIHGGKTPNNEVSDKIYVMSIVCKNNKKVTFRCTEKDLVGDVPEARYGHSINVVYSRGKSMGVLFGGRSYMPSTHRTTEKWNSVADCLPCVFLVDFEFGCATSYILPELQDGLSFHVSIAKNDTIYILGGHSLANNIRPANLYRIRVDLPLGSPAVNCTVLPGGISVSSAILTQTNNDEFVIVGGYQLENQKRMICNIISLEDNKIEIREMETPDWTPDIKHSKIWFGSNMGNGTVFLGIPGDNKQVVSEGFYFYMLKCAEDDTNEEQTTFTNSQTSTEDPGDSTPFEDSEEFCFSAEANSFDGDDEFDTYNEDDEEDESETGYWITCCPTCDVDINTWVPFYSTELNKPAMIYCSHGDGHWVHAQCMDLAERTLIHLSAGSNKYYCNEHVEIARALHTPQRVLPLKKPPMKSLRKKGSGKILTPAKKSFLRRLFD

- Kd: 400 nM
Substance: RAG1 (from UniProt P15918)
